# Measurements: the NTF2 design screens of Basanta et al. (2020)
# Experiment: protease stability score; higher = more stable; yeast display proteolysis, trypsin and chymotrypsin;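 further: relative to predicted unfolded state with 0 unfolded-like and 1 meaning tenfold more protease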
row,Sequence,protease stability score
1,DEEEEIIKEQLRILKKNLETGDWKAVLKMFDPNVREDVNGQTLIGRELWAQIFVEMGVDHIIERRVDIQGDKIRLYGQLDQGDKKHTTHIHARKVDGRWTFESVHVR,1.08
2,DENKETIDRVYRLLDEALKTGDFEIFAYLMDPHVRNDVDGVDIVGRDLVKKVLEDIIRDLGFKHETLKVHDWRSINGRVHIDTEVELDVNGVDLRKRTIIIALKINGKWRITEIVFE,2.33
3,HEEEEIVHRFVEDWFRHLKTGDFRSLFQLLDPHTRTDINGKSIHGRDTIMTEIIENMIRLGVNHMEVRIHHISVVDGQAHIDIWLIIRVNGKEQAHHVHILAQKINGKWFLKDIRFE,1.5
4,DEHEEHVHEITRLIIEAELTGDFERMKKMFDPNAKLILLINGREDTNHGMDFVRFWLKEHLERVDHRRVELKRWDVVNGVSHNDVTLHLEVGEWKITVKMHLHIVVVDGRLKSIKIEIR,1.4
5,SEEEKSSHLSIRLWLEMLITGDEDHLEHLADPNVRIEFEGREFHGRERAMHWMRHVSRHMRIEHIQIRRIHYFDGRLQLEGRIDGNINGRNHRFDSELEVTKIDGRWLLTSERIE,1.24
6,DEDHDLQEEILKRFEHLFRTGDWKELHHLLDPHARTRWDGRTRHGRDQVLDVMREMGADHLTIHHYNIQGEKIRIDFDLEIGDKRHKLDIHVSKINGKWIVKHIEIDTR,1.03
7,NEEDEFMEVAVELMERTLKTGDERLLSELVDPNARIEFNGREWHGRKFLETLWRELTKKFPNMKVMFKIEYINSFEGHIEIEGILESNFDGRVESRRVHYNVSKINGRWIIEEIEIQ,1.35
8,SESERATRHALRLLWDILLTGDEETWEKMADPNVRVEIGNFHDHGMDSMRLLFHLLLERIDHIHDFTVRHSHSQGDKVENHTEIEVRQGDKSLNITTVFVYVKINGRWINKRVIFK,0.999
9,HEESEDATRFLHQVIHALYTGDEKRFDELLDPRMRLHIGDKQHVGRENVSEFLLHLRIRHVHVHDFRVFDGRLHVDQTLDGEYDGRRREIHFELQITKINGRWFLNHFWIR,1.35
10,SEDDRENHRFMEQFLHDWETGDEDSLRKLADPDVKVRINGVDLHGWSFFEDYLRRVDHIDDFKIDHVEIQGDKIKIHGQQHGRIDGRRDTYKVQNFFIKIDGKWRLKMVINR,1.34
11,SEDEEKAERLSRKVVHDLLTGDFKSLLEMFDPNVRVNINGVNNHGRHFFWHELYDELRRLGVDKIEVDLRSLQVYGDKVVLEMELRVNGKKITVEIHMKKVDGRWHIKEVTHE,1.04
12,DEDTEQVERALHLWVKLVQTGNEEVIRHLLDPNVRIIVNGVDYHGRSALDELQRRVDVNTWKRVRLHDASVYNGRMHIDGEIDTQEIVGDKRIIIHTKVDMVSSKVNGKWIFHSMIFH,0.848
13,DHKTKMREHAVHEWFDDVITGDERRIREYADPNVRIDIDINGRHEELHGRELFSEILTRFKNVQVEIKHVNHIGDKLHIHFRVHIDGREENVIIIMHKVDGKWVTKRFIIDDA,1.05
14,DEHEEAFREFLRLLLESLRTGDEHTLKRLIDPHARIDIDGQEFVGMEHLEHILKNMIKHIRYEDIEIEHFEFINGQVRFKTRYHGRINGKRDTLHIHIIITKINGKWVLEQLEFR,2.15
15,SEIEELMKISLREFLHSSETGDEEHHNRYADPNVRLEIGDKTLIGWEALEHLLEHWKREAGIEKIELHIHVTRIHVQGEKLEFDGHLEVRQGDKVNHVKVTLVITKIDGKWVLHSVVFI,0.367
16,SEDERLLREAVEELIHSWETGDFDHVLRMFDPDVRLHFEGRHTHGREVYEQQLRFLWERFKNVRITVEYKHVEVINGKAIVHGKLLLIIGDKTVELTNEIYVRKINGKWLSEEIRIK,1.44
17,DREERDTREALRILHEISRTGDEELLDRQMDPDVKIDFENHEFHGREEASTLIHEIYQKWGLSNVEMDIKRVRTVGEKVDIDGRLHFNGVTRDIRLINLKVNGKWFIHSIIFR,1.2
18,GEEQEDIKKFLEDDMEAWSTGDFRQLKRNMDPHVRIVINGRHLHGMETFEHFFEHLRVRITSLELKRVEAVGDKVSYDGELDFELDYNGRRLSQRTRVEFRIEKINGRWILHYVIFR,0.329
19,DEDEKLMEETLKVLIRAFDTGNWEDLKRMVDPHVRIYFNGRIFHGREFFMEYVIHLRHHARIHLELKDIEVQGDKAHADSRVLVIQGDKSWEFDLEINMTKYDGRWHIKTIKIR,2.68
20,SEDKNAVHEIVERFLKAMLTGDEHILKTLLDPHVRLHIGDKSRVGMERVIHELIHIRIHELRVESMEMRLWDGRAEVHVFGEVRQRVDGQERNITTSIILHIEKIDGRWHLTQLQFIIS,2.53
21,HEEERILRFYLEWIEHHLRTGDERFIEENADPNVKIRVNGKDIHGRERYNEVWDKVLRDFGVDHTNDKDTTAYDGRIEVHEEWRFNGRRVDVETIIIFINGVIKHIEIRIRIE,2.12
22,SEDEEWVRRKVERWIRAFKTGNFEELRRNADPDTRIHINGVNFHGREDFEKFVTELMRRVKNARIDVHRLELQGEFIHSDETEDVNGVEHHVRFTYRKIDGRWSLHSIEFH,1.59
23,SEDEEDVEQWVRIWFDLLLTGDEDSLRKLIDPHARVEVNGVIQIGREEVARFLSQMRVHDSTLRDIKIYDGRVEIDNEEDVEFNGQRKRVKVILISNKFDGRWTNEHEKYE,0.449
24,SEEEEYARHFMTLVMSNLHTGNFEESRQNADPRTRVVIGDKRLHGWDEFAREYHEELRDRGVEIHFRVHHIEEFDGRLLTDFSIEIRYGDKVDHIRIRLYVTKINGRWFIKELEFR,1.1
25,HEKEHRLHEIMELWLKLVQTGNEEILMELADPHTKLDIGDKHLHGRELTSRFLLHMRIEDLTIKRIDVQGDYAHIDGHVIGVINGRRFISDRHIHLDIYNGKHRRVEVRIE,1.01

row,Sequence,protease stability score
1,DEHKDLAHKAITNFIEWTETGDFEMFLKLFDPNMRLRVDGQHHHGWHDVFRVFREMGYEIKSVKMDDVEIQGEKITVDLRVHVDINGQHEDIKTRYFFSKYDGKWIIEQIQVV,-0.276
2,HERQKEMETLVELFDEEWLTGNEQTHRRLADPHMKLDVNGKTYHGWKQYNKHLQDFLKRIDHVELEIKRIRVQGEYAHSDGTLRMHYNGVTEERNVHVEINIIDGRLKSVHLKVE,1.1
3,DRREEMEEIADELRRELIKTGDEHSTHRLADPHAKLHIGDKEYHGMEFMIRFFKILGVDHLRLQDIRVIDGQVHIHITSRVGDKRVHVEIISDKYNGRWRLREVIITID,0.711
4,DEKKEDIDRMVKEIHTIFATGDEDRFKELLDPNVRVDVDGKKRHGREDATEHFRKWVLTLGIDHSRVHSVHTIDGVVFLEIRFDVNGQTIKVRVLAVKVDGQWLIEEVEIRWK,2.38
5,DKHEEALEIAIRLLELVWKTGDFEDFVRLLDPHTRFHYGDKDFIGMELWLRLHEHLGITQIEIRSTHHHRIHAQGDKVILDIEIEGIIGDKETRHRIKLVVVKVDGRWKIKEVHIR,1.09
6,DEREKEHETQIRLLIHAIQTGDESMFHKMMDPNVRIQVGDKHIHGREFFVEIFKKLIDRYPGIQLHIRIHSIRFQGEKVTIDERLEIIVGDKEMRFETEIFSQKVNGRWLIEFERIQ,0.579
7,TEDERILKELAHLLLLLWKTGDENIWRELADPNVRVIFLIGDKEEHHHGRDMFIKLRHDYGVDHMELRRVDVQGDKVRFEGDLWVDGRIHRVHINFSVINGKVHQIKIDFS,2.49
8,SEEEYWAKEMAILLDIAWYTGDEERFEEYVDPNTRIDFDGRVFHGREFLHHFRERVDHMREVRSRIESVHKQGDKLRVHGHLIIQGVIDGVDTQQRFKVHFIMEKVDGRWIFREEIYK,1.51
9,DDDEHEAKEAIHLWLELFMTGDEESHNRYMDPHVKTKFHFENHHEEYHGREKAIELMRMLGIKHVELRDVSTRVINGRVHIDMEIIVHFDGQEVRVIVLVIVIKINGQWILHEVVIIIK,0.933
10,SEDVEFIVRFIERFWHLLLTGNEEEFEKLLDPHVRIEINGVNLVGREEVTDWFKHIRIDDMRMIFRHSSVVDGRVNVIGALRRDGHINGQRVTEERDTRLHLYKVNGQWFLTEIELH,1.5
11,DERKEHSIKVAKNIFNDILTGDEDRMKEMMDPDVKLHIGDKDVIGRENVIKFMIEEWNHIRFEDFKHKDVRVQGDKAILEGHINVEYGDKHRNVDSRYLVFVIDGRIKSIEIRLH,1.39
12,TEEHEKSEIAVELIIRTLVTGDEELMNKLIDPHVRIEFENRELVGRETYTKIYSRELRELGWEFVTTELRHIETQGEKVELQGDLVINGKRIKVHLYFHKYNGVWFLKRVHYE,1.19
13,DEEKEEYNRKAKEFWQRWLTGDEKRLRELADPNVRLDIDGVELVGREEFVHAVHEFLRHIRFKDMKVHRTDNIDGKNESDFEVTGDVNGQDMKSRTHVLILLVNGKIKEVEHRWK,0.222
14,DEDHKSAEDMLRLLLETVITGDETLLEKLADPHVRLRVGDKKFIGMEELLRLLDEEKKRLGYTRVDLVLHHREVQGDKLHLETELRVNGRTYQTHWIALKINGRWIIHEVSIR,2.25
15,SDTEHDARRVIEELSKALLTGDWRRIEELLDPNTRWVFNGQEFHGMEIVIKVLIHLRRHMTHVEFHDIHTIDGRVHSDTEFDVSLIINGKTERTRVHVEFIIRKVNGRWRIEEVRFE,2.25
16,DEERQRAHKWMHDWIKAYLTGDEEHQNQMLDPNMRIEYGDKTHHGRDILIEIFREELRQVDHIEIRIRHIDNFEGRVRTDGELHVKINGRREHYDIILEYDVVNGKLKIERWDIR,1.45
17,DHEDELMERLARLFVHALQTGDEDLLRRYADPNTLINVNGKNLHGMEEESRFWKEIRIEHTEVERIHVQGNKSTVFVRVFFRIGDKHVHEHRILRLEFVDGRLRSVELERH,1.69
18,DEDTNIEKMASQRIFHDIMTGDFQSLWEMFDPNARLIQGDWHSHGRENIIIYYMELVEKLGVTNVRFRLEDEDSQGDKVIIHSSLNINGRHFKLDIHAVKINGRWFIREVDVRLH,1.4
19,SELEESVRWAAEVFVKYTLTGNEHLLSRYFDPNVRVHFDGVDLHGREELSKLFLHIRFRRIHLRSEKEFEGHAELDQEHDGHYNGVRHNRTLRLHMIKINGQWITEVFILH,1.34
20,SEEEESIHEAQKVFLKIIMTGDWEEIARRLDPDVRLHIGNKKVHGREEAIEFFRKFLEEIRIHDEELKEFSSIDGRVHIRGEIDGTINGVRDRVEVHNVIWKFNGRWFISFREER,1.36
21,DKEFEDVIRMAEHEMKLMETGDWKTHEHLADPNYRVDINGREHIGWDHFVRWLFHMRIHRIEIKEVRVQGEKATLRLKVDGEQGDKRFKTDIEFSLLIVDGRIKEIHIILH,1.36
22,SEDEKLDRDLHDLFRKLWETGDFDSLLKLADPTARFIYDFENHSEEEHGMHVYLKRLTERLRFFKGLQIEVDVIHVVNGVSHFELTMHIDGVRIKVEIEVITIDGRVREMRVRDN,0.738
23,TKDDEDRKHFEKLLRHSLETGNWHDMQRNADPNVRLNVNGVEIHGMDTAYELWVEELNRADHIEIHMEHSTRVGDKLHLDVNVIMKQGDKHIERRVRLVVLKINGRWFIHSVHVH,1.1
24,DETEDEMHKVLKLWIEAYRTGDEELLEELFDPHVRLDINGKDFHGREAFTRQVRHEMKHLRYEDFHIDTVEVQGEKAFVHGRIVGKFDGRRRHMHSHLIILKINGRWHVESLHFK,1.26
25,SEEEHELDHIAKEFLRVYLTGDEDELRKLMDPNARVDINGREMIGMELILKDLRDRLEHLGIKHSHITIREVQNFDGQIHIRGHIRIEIGNKRLEFDSRIIMHVIDGRLRSFHVIFI,1.92
